{"source": "IntAct's records for PubMed 31515488", "parents": {"B1": {"name": "Barrier-to-autointegration factor (Homo sapiens), O75531 (parent)", "chain": "MTTSQKHRDFVAEPMGEKPVGSLAGIGEVLGKKLEERGFDKAYVVLGQFLVLKKDEDLFREWLKDTCGANAKQSRDCFGCLREWCDAFL", "partner": "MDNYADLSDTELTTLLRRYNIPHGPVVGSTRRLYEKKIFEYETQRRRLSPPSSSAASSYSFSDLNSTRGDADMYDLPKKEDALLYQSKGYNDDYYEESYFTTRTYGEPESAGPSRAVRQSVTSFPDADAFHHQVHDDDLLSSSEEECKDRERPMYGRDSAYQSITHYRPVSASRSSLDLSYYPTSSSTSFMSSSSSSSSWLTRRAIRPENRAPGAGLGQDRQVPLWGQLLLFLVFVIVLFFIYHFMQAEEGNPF"}, "B2": {"name": "Protein boule-like (Homo sapiens), Q8N9W6 (parent)", "chain": "MQTDSLSPSPNPVSPVPLNNPTSAPRYGTVIPNRIFVGGIDFKTNESDLRKFFSQYGSVKEVKIVNDRAGVSKGYGFVTFETQEDAQKILQEAEKLNYKDKKLNIGPAIRKQQVGIPRSSIMPAAGTMYLTTSTGYPYTYHNGVAYFHTPEVTSVPPPWPSRSVCSSPVMVAQPIYQQPAYHYQATTQYLPGQWQWSVPQPSASSAPFLYLQPSEVIYQPVEIAQDGGCVPPPLSLMETSVPEPYSDHGVQATYHQVYAPSAITMPAPVMQPEPIKTVWSIHY", "partner": "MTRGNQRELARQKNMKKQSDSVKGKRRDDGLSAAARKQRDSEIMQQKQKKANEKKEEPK"}, "B3": {"name": "Segment polarity protein dishevelled homolog DVL-2 (Homo sapiens), O14641 (parent)", "chain": "MAGSSTGGGGVGETKVIYHLDEEETPYLVKIPVPAERITLGDFKSVLQRPAGAKYFFKSMDQDFGVVKEEISDDNARLPCFNGRVVSWLVSSDNPQPEMAPPVHEPRAELAPPAPPLPPLPPERTSGIGDSRPPSFHPNVSSSHENLEPETETESVVSLRRERPRRRDSSEHGAGGHRTGGPSRLERHLAGYESSSTLMTSELESTSLGDSDEEDTMSRFSSSTEQSSASRLLKRHRRRRKQRPPRLERTSSFSSVTDSTMSLNIITVTLNMEKYNFLGISIVGQSNERGDGGIYIGSIMKGGAVAADGRIEPGDMLLQVNDMNFENMSNDDAVRVLRDIVHKPGPIVLTVAKCWDPSPQAYFTLPRNEPIQPIDPAAWVSHSAALTGTFPAYPGSSSMSTITSGSSLPDGCEGRGLSVHTDMASVTKAMAAPESGLEVRDRMWLKITIPNAFLGSDVVDWLYHHVEGFPERREARKYASGLLKAGLIRHTVNKITFSEQCYYVFGDLSGGCESYLVNLSLNDNDGSSGASDQDTLAPLPGATPWPLLPTFSYQYPAPHPYSPQPPPYHELSSYTYGGGSASSQHSEGSRSSGSTRSDGGAGRTGRPEERAPESKSGSGSESEPSSRGGSLRRGGEASGTSDGGPPPSRGSTGGAPNLRAHPGLHPYGPPPGMALPYNPMMVVMMPPPPPPVPPAVQPPGAPPVRDLGSVPPELTASRQSFHMAMGNPSEFFVDVM"}, "B4": {"name": "Centrosomal protein POC5 (Homo sapiens), Q8NA72 (parent)", "chain": "MSSDEEKYSLPVVQNDSSRGSSVSSNLQEEYEELLHYAIVTPNIEPCASQSSHPKGELVPDVRISTIHDILHSQGNNSEVRETAIEVGKGCDFHISSHSKTDESSPVLSPRKPSHPVMDFFSSHLLADSSSPATNSSHTDAHEILVSDFLVSDENLQKMENVLDLWSSGLKTNIISELSKWRLNFIDWHRMEMRKEKEKHAAHLKQLCNQINELKELQKTFEISIGRKDEVISSLSHAIGKQKEKIELMRTFFHWRIGHVRARQDVYEGKLADQYYQRTLLKKVWKVWRSVVQKQWKDVVERACQARAEEVCIQISNDYEAKVAMLSGALENAKAEIQRMQHEKEHFEDSMKKAFMRGVCALNLEAMTIFQNRNDAGIDSTNNKKEEYGPGVQGKEHSAHLDPSAPPMPLPVTSPLLPSPPAAVGGASATAVPSAASMTSTRAASASSVHVPVSALGAGSAATAASEEMYVPRVVTSAQQKAGRTITARITGRCDFASKNRISSSLAIMGVSPPMSSVVVEKHHPVTVQTIPQATAAKYPRTIHPESSTSASRSLGTRSAHTQSLTSVHSIKVVD", "partner": "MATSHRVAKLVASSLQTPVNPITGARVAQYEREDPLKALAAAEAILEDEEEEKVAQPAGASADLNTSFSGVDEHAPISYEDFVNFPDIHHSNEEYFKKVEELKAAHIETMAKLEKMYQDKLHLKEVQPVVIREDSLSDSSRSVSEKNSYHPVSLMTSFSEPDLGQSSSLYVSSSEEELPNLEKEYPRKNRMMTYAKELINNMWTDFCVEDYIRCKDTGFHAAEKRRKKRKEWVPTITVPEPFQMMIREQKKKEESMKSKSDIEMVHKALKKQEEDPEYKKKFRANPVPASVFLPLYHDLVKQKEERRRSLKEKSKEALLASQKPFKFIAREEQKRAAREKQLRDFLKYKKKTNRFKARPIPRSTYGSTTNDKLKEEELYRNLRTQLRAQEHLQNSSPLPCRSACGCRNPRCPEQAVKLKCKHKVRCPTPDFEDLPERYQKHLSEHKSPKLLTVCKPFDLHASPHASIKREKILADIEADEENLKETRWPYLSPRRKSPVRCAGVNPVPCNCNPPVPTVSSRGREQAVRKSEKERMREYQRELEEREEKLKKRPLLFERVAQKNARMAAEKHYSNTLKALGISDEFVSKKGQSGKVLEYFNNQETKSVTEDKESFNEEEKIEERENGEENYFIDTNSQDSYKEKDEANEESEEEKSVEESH"}, "B5": {"name": "Peroxisomal bifunctional enzyme (Homo sapiens), Q08426 (parent)", "chain": "MAEYTRLHNALALIRLRNPPVNAISTTLLRDIKEGLQKAVIDHTIKAIVICGAEGKFSAGADIRGFSAPRTFGLTLGHVVDEIQRNEKPVVAAIQGMAFGGGLELALGCHYRIAHAEAQVGLPEVTLGLLPGARGTQLLPRLTGVPAALDLITSGRRILADEALKLGILDKVVNSDPVEEAIRFAQRVSDQPLESRRLCNKPIQSLPNMDSIFSEALLKMRRQHPGCLAQEACVRAVQAAVQYPYEVGIKKEEELFLYLLQSGQARALQYAFFAERKANKWSTPSGASWKTASARPVSSVGVVGLGTMGRGIVISFARARIPVIAVDSDKNQLATANKMITSVLEKEASKMQQSGHPWSGPKPRLTSSVKELGGVDLVIEAVFEEMSLKKQVFAELSAVCKPEAFLCTNTSALDVDEIASSTDRPHLVIGTHFFSPAHVMKLLEVIPSQYSSPTTIATVMNLSKKIKKIGVVVGNCFGFVGNRMLNPYYNQAYFLLEEGSKPEEVDQVLEEFGFKMGPFRVSDLAGLDVGWKSRKGQGLTGPTLLPGTPARKRGNRRYCPIPDVLCELGRFGQKTGKGWYQYDKPLGRIHKPDPWLSKFLSRYRKTHHIEPRTISQDEILERCLYSLINEAFRILGEGIAASPEHIDVVYLHGYGWPRHKGGPMFYASTVGLPTVLEKLQKYYRQNPDIPQLEPSDYLKKLASQGNPPLKEWQSLAGSPSSKL"}}}
{"variants_of": "B1", "conditions": "with emd_human EMD"}
{"variant": "A12T", "effect of a mutation on the interaction": "with no effect"}
{"variants_of": "B2", "conditions": "with serf2_human SERF2, P84101"}
{"variant": "V78I", "effect of a mutation on the interaction": "with no effect"}
{"variant": "M270I", "effect of a mutation on the interaction": "with no effect"}
{"variant": "S9Y", "effect of a mutation on the interaction": "disrupting interaction strength"}
{"variants_of": "B3", "conditions": "with thap1_human THAP1, Q9NVV9"}
{"variant": "A53V", "effect of a mutation on the interaction": "with no effect"}
{"variant": "T535I", "effect of a mutation on the interaction": "with no effect"}
{"variants_of": "B3", "conditions": "with kc1e_human CSNK1E"}
{"variant": "A53V", "effect of a mutation on the interaction": "with no effect"}
{"variant": "T535I", "effect of a mutation on the interaction": "with no effect"}
{"variants_of": "B3", "conditions": "with traf2_human TRAF2, Q12933"}
{"variant": "R415Q", "effect of a mutation on the interaction": "with no effect"}
{"variants_of": "B3", "conditions": "with ap2m1_human AP2M1, Q96CW1"}
{"variant": "R415Q", "effect of a mutation on the interaction": "with no effect"}
{"variants_of": "B4", "conditions": "with FAM161A"}
{"variant": "I175M", "effect of a mutation on the interaction": "with no effect"}
{"variant": "H36R", "effect of a mutation on the interaction": "with no effect"}
{"variants_of": "B5", "conditions": "with tpp2_human TPP2, P29144"}
{"variant": "R556G", "effect of a mutation on the interaction": "with no effect"}
{"variant": "R483Q", "effect of a mutation on the interaction": "disrupting interaction strength"}
{"variants_of": "B5", "conditions": "with actb_human ACTB"}
{"variant": "R556G", "effect of a mutation on the interaction": "with no effect"}
{"variant": "R483Q", "effect of a mutation on the interaction": "disrupting interaction strength"}
{"variants_of": "B5", "conditions": "with actg_human ACTG1, P63261"}
{"variant": "R556G", "effect of a mutation on the interaction": "with no effect"}
{"variant": "R483Q", "effect of a mutation on the interaction": "disrupting interaction strength"}
{"variants_of": "B5", "conditions": "with tnip1_human TNIP1, Q15025"}
{"variant": "R483Q", "effect of a mutation on the interaction": "with no effect"}
{"variants_of": "B5", "conditions": "with fund1_human FUNDC1, Q8IVP5"}
{"variant": "Q685K", "effect of a mutation on the interaction": "disrupting interaction strength"}
{"variants_of": "B5", "conditions": "with tri41_human TRIM41, Q8WV44"}
{"variant": "Q685K", "effect of a mutation on the interaction": "with no effect"}
{"variants_of": "B5", "conditions": "with CCDC102B"}
{"variant": "Q685K", "effect of a mutation on the interaction": "with no effect"}
